Test results from article PMC6349121.

Target: GST-cIAP1R (cIAP1 RING domain, residues 556-C, with GST) (human) (UniProt Q13490)
Test: SPR; as a1, but UbcH5B–Ub variants diluted in running buffer containing 0.6 mM UbΔGG; GST-cIAP1R coupled to a CM-5 chip, 25 °C; steady-state affinity analysis

UbcH5B–Ub in the presence of 0.6 mM UbΔGG (UbcH5B–Ub with backside-bound UbΔGG) (from UniProt P62837 1-147; P0CG47 1-76; P0CG47 1-74) (complex)
Kd: 220 nM
